Laboratory results from patent publication US20100303812A1 (SMART TARGETING, published 2010).

Legend:
pure recombinant Dll4 = target: T1, pure recombinant Dll4 (human, UniProt Q9NR61 27-524); assay: SPR, Biacore A100; immobilized recombinant Dll4, antibody at 20, 10, 5, 2.5 and 1.2 µg/ml
T1 construct: also called recombinant DLL4 ligand; immobilized Dll4

[1] = target: T2, human Jagged1 (on transfected CHO cells) (human, UniProt P78504 34-1218); assay: flow cytometry on transfected CHO cells (STL4 as one of the three)
T2 construct: whole, on cells
T2 sequence (P78504 34-1218): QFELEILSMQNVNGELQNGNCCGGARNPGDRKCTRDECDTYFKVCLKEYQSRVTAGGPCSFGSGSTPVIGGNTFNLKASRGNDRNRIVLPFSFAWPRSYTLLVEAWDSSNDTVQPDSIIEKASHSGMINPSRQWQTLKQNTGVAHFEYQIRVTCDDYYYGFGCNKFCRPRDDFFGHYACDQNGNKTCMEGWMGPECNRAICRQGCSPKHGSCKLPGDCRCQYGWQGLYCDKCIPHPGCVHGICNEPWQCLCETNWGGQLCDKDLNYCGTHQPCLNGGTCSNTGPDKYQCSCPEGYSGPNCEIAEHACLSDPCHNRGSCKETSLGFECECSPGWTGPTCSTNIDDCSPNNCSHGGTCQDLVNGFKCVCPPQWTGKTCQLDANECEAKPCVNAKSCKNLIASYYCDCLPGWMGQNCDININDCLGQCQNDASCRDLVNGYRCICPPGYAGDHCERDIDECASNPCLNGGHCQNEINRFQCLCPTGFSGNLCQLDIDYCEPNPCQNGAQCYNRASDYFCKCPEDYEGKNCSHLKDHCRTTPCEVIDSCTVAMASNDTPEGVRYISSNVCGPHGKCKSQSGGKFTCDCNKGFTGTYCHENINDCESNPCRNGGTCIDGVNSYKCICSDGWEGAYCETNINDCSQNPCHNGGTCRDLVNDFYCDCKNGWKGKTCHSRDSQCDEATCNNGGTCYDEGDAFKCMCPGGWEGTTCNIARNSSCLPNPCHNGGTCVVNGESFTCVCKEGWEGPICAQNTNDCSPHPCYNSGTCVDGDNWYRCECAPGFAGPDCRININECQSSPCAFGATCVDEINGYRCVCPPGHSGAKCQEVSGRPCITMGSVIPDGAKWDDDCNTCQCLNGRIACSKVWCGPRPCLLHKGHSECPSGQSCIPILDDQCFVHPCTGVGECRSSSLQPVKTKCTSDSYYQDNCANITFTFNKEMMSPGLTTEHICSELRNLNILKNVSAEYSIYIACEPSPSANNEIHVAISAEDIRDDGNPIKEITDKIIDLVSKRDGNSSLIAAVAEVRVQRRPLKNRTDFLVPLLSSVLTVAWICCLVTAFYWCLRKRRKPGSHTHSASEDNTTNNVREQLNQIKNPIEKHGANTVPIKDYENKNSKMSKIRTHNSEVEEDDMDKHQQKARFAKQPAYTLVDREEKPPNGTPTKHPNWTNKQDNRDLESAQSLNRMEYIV

[2] = target: T3, human Jagged2 (on transfected CHO cells) (human, UniProt Q9Y219 24-1238); assay: as above
T3 construct: whole, on cells
T3 sequence (Q9Y219 24-1238): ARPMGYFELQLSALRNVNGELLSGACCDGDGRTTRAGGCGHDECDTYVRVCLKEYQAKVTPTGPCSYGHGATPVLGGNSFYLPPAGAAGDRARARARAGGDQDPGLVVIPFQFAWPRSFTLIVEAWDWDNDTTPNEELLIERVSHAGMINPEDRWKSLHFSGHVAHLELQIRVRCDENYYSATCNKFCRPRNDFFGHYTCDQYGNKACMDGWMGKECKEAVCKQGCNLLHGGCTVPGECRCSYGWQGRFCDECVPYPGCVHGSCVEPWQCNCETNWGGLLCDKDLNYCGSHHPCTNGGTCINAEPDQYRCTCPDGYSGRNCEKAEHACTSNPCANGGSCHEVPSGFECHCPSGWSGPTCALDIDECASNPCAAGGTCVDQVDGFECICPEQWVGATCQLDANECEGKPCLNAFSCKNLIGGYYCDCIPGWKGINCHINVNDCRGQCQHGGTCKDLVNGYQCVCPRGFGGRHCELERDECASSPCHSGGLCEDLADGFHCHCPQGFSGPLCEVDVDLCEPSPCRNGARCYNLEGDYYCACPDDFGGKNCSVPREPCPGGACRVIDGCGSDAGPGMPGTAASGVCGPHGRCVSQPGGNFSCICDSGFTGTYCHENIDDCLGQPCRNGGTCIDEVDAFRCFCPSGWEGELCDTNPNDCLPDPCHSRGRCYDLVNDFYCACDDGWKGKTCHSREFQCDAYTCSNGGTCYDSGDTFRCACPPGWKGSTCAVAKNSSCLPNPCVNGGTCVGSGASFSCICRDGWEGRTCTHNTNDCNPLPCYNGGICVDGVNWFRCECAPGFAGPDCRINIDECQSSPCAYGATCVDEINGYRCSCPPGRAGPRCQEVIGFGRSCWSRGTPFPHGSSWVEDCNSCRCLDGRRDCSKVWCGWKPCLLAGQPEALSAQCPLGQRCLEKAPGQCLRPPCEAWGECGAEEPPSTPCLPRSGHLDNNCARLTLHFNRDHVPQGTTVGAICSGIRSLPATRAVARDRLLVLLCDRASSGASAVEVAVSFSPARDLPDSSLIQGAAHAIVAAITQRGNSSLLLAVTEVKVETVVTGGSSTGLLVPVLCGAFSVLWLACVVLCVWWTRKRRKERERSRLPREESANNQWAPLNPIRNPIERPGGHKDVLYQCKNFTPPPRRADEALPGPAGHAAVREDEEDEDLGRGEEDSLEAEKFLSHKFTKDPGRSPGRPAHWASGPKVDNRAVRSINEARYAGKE

[3] = target: T4, human DLL1 (on transfected CHO cells) (human, UniProt O00548 18-723); assay: as above
T4 construct: whole, on cells; also called delta-like-1
T4 sequence (looked up): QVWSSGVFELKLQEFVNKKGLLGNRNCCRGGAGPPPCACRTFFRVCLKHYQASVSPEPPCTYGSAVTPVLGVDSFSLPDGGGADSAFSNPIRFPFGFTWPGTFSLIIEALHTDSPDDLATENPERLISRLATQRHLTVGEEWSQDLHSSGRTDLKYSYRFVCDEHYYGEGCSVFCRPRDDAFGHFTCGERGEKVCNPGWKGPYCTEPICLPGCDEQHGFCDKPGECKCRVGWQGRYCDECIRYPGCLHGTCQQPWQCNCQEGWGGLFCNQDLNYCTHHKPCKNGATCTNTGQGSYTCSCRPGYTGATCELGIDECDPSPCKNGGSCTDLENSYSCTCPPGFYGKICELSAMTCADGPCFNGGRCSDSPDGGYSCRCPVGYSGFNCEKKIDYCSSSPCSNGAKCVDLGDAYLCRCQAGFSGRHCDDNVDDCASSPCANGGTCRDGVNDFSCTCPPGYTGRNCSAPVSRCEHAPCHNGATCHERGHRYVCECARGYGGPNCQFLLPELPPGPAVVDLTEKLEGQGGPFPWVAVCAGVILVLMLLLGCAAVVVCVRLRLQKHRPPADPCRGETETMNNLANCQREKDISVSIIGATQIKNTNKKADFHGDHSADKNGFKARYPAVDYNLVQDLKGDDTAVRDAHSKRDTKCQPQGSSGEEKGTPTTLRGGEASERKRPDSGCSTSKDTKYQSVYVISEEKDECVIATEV

[4] = target: T5, mouse DLL4 (on transfected CHO cells) (mouse, UniProt Q9JI71 27-686); assay: flow cytometry on transfected CHO cells (STL4 as one of 'all three')
T5 construct: also called murine DLL4; murine Dll4
T5 sequence (Q9JI71 other isoform, or with tags, fused parts or gaps limits assumed): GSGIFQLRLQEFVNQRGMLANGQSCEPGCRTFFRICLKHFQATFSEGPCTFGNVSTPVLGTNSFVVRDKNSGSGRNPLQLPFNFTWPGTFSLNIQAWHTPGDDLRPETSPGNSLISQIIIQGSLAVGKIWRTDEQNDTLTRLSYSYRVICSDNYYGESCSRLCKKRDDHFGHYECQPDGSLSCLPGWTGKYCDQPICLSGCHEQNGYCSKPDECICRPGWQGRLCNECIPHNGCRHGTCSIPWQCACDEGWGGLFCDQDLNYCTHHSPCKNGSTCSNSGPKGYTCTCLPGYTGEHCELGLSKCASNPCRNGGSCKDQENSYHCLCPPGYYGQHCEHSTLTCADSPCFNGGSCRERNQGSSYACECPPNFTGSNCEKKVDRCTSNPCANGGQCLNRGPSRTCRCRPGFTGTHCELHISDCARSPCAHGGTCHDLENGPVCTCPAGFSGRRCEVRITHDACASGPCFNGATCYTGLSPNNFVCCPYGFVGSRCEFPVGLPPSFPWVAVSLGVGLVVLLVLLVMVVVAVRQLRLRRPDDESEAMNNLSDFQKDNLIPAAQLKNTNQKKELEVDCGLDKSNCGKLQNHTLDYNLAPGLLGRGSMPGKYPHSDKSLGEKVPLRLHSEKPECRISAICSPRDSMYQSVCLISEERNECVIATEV

T1 sequence (Q9NR61 27-524 limits assumed): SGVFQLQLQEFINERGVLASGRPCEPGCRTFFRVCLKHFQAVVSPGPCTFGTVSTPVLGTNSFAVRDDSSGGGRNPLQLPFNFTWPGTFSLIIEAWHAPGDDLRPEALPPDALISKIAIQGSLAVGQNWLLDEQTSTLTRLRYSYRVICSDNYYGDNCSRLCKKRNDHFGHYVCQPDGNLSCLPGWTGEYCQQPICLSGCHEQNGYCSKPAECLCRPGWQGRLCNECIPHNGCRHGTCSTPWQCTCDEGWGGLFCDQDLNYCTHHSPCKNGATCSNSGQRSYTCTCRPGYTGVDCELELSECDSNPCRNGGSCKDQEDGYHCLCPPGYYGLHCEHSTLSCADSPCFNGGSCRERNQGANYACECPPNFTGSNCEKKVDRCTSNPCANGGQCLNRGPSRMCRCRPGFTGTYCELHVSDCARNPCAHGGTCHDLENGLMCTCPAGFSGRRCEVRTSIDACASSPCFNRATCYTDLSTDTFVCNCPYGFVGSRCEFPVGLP

B1: cSTL4 (antibody, V domains shown)
VH: EVQLQQSGPELVKPGASVKMSCKASGYTFTSYVMHWVKQKPGQGLEWIGYIIPYNDGTKYNEKFKGKATLTSDKSSSTAYMELSSLTSEDSAVYYCARSEDYDHFDYWGQGTTVTVSS
VL: QIVLSQSPVILSASPGEKVTMTCRASSSVSFMHWYQQKPGSSPKPWIYATSNLTSGVPTRFSGSGSGTSYSLTISRVEAEDAATYYCQQWSSNPFTFGSGTKLEIKR
notes: Chimeric form of STL4: mouse VH and VL fused to human IgG heavy and kappa constant regions, expressed from pCAcc vectors; also called chimeric anti-Dll4 antibody; chimeric antibody; not shown: human IgG heavy constant region CH1-H-CH2-CH3; human immunoglobulin kappa light chain constant region
In the case of B1, the Ka (pure recombinant Dll4) is reported as 2.45e+09 M⁻¹, the Kd (pure recombinant Dll4) is reported as 408 pM and the koff (pure recombinant Dll4) is reported as 8.79e-05 s⁻¹.

B2: STL4 (antibody, V domains shown)
VH: B1 VH
VL: B1 VL
notes: Mouse monoclonal antibody (BALB/c hybridoma, purified from ascites); mouse IgG1 served as the control; also called anti-DLL4 antibody; anti-Dll4-antibody (STL4)
B2: no binding [1]; no binding [2]; no binding [3]. B2: no binding [4].
